B1: FAM46D (parent)
chain: FQEAMTHLQHKLICTRKPEEIRGG
B2: LCOR (parent)
chain: YKVKERLGTLKNPPKKKMKLMSG

Variants of: B1
Test: protein stability index of a GFP-peptide fusion (GPS, HEK-293T) (PSI 1-6); higher = more stable
Details: c terminus: a fixed tail appended
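Note: lentivirally expressed fusions sorted by FACS into six bins by GFP to DsRed ratio, PSI derived from sequencing read proportions per bin multiplied by bin number.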

Protein stability index: each site, then its substitutions
A4: T 3.29; M 3.38; W 1.58; E 3.28; K 3.51; P 2.62; C 2.61; H 2.95; Y 2; V 2.63; F 1.82; I 2.42; S 2.99; R 2.75; D 2.8; Q 2.98; N 3.36; G 2.74
Q9: A 2.25; N 1.79; C 1.89; E 3.36; G 2.09; F 2.61; T 2.6; Y 2.3; W 1.16; R 2.7; D 2.89; H 2.67; K 2.38; M 2.21
H7: G 2.71; Y 3.71; S 3.3; D 3.54; L 1.67; I 1.59; W 1.95; M 1.11; P 3.4; E 3.86; C 2.85; R 2.66; T 2.77; N 3.19; V 2.48; Q 2.93; K 2.61; A 2.44
T15: K 3.42; I 2.21; L 1.77; G 3.56; Y 2.17; N 2.79; C 2.42; Q 3.31; P 3.04; E 3.06; H 2.22; S 2.92; M 3.17; V 2.94; W 2.31; D 3.01; A 3.06
C14: Q 2.51; N 2.71; S 2.87; G 2.63; T 2.7; I 2.21; P 2.33; D 3.17; K 2.6; V 2.96; W 1.68; F 2.58; R 3.28; Y 2.45; M 2.38; E 3.36; H 2.82; L 2.55
T6: M 1.66; K 1.86; H 2.22; D 3.41; V 2.86; I 2.15; E 3.38; L 2.04; A 2; N 2.11; P 3.04; Y 1.54; R 2.69; Q 2.13; S 3.2; W 1.49; F 2.11
M5: C 3.35; K 2.94; E 4.43; W 2.1; S 3.67; L 1.64; H 3.79; R 3.13; P 3.37; V 2.97; Y 2.16; D 3.44; F 1.93; T 3.12; G 3.54; I 2.22; N 3.53; A 3.21
Q2: F 1.6; L 2.32; S 2.74; D 4.05; P 2.53; V 1.56; I 2.01; Y 2.19; G 3.01; K 3.46; W 1.67; M 2.28; R 4.08; A 2.91; T 2.1; H 2.02; C 1.76; N 3.38; E 4.25
F1: P 4.01; C 3.98; A 4.16; G 4.4; E 5.26; R 3.82; T 3.96; I 3.29; N 4.29; L 2.93; D 4.81; V 4.64; M 3.67; S 3.49; K 3.61; Y 3.2; H 4.3; Q 3.85; W 3.28
I13: A 2.76; H 2.54; F 1.73; P 2.95; G 2.67; N 3.33; M 2.61; L 2.13; Y 3.58; C 3.07; K 3.67; E 3.67; S 2.94; Q 3.58; V 2.76; R 2.72; D 2.57; T 2.52
L8: I 2.88; Q 3.68; K 2.29; W 1.89; D 4.31; N 3.76; F 2.42; M 3.24; E 3.69; G 3.09; V 2.07; S 3.62; Y 2.34; T 3.35; C 3.23; H 3.57; A 3.91; R 3.31; P 2.99
K11: N 2.17; F 2.16; A 2.54; G 2.38; I 2.03; H 2.44; E 3.88; T 2.72; D 2.88; M 1.57; V 1.86; L 2.79; C 2.89; Q 2.41; S 3.15; R 2.83; W 1.58; Y 1.66; P 2.44
R16: F 2.62; W 1.67; C 1.84; G 2.6; M 2.21; K 2.09; H 2.6; T 2.56; Q 3.16; V 2.77; Y 3.21; P 2.87; I 2.08; S 2.75; A 3.35; D 2.68; E 2.57; N 3.02; L 2.55
L12: H 3.44; E 3.27; M 3.84; S 3.4; D 2.98; W 1.27; K 2.9; P 2.8; C 2.84; Y 2.31; T 3.99; Q 3.87; G 2.72; R 2.71; I 2.78; V 3.06; F 2.38; A 3.49; N 4.18
K17: F 2.03; D 3.46; E 3.03; C 1.91; A 2.58; L 1.66; I 2.68; H 2.38; M 2.87; G 2.77
E3: R 1.82; T 2.54; H 2.21; K 2.17; A 1.82; M 1.62; D 2.17; S 1.91; Y 2.3; P 2.8; F 1.48; L 1.9; N 2.55; G 2.98; C 1.64; V 2.08; I 2.22; Q 2.52
H10: Y 2.11; R 2.71; F 1.73; V 1.92; K 2.94; E 3.79; D 3.14; G 2.67; T 3.52; S 2.5; N 2.93; M 1.44; Q 3.05; C 2.72; L 2.24; P 3.16

Variants of: B2
Test: as above
Details: c terminus: native

Protein stability index: each site, then its substitutions
M21: W 2.82; T 1.76; Y 2.34; S 1.45
S22: K 3.02; M 1.61; E 2.58; T 2.42; P 2.45; V 2.09; N 2.11; I 2.45; L 2.19; A 2.85; H 2.95; Y 2.65; C 2.14; F 2.44; D 3.1
G23: I 2.4; R 2.88; W 2.19; C 2.57; Q 2.78; D 4.01; V 2.11; K 3.41; N 2.43; M 3.85; T 3; S 3; L 2.75; F 2.15; A 2.29; P 3.18; H 3.01; Y 2.57; E 3.19

— the supplement of paper PMC10567573
